B1: Recombinant human PEPD (peptidase D, prolidase), wild type, 6×His tagged at the carboxy terminus (ligand)
chain: MAAATGPSFWLGNETLKVPLALFALNRQRLCERLRKNPAVQAGSIVVLQGGEETQRYCTDTGVLFLQESFFHWAFGVTEPGCYGVIDVDTGKSTLFVPRLPASHATWMGKIHSKEHFKEKYAVDDVQYVDEIASVLTSQKPSVLLTLRGVNTDSGSVCREASFDGISKFEVNNTILHPEIVESRVFKTDMELEVLRYTNKISSEAHREVMKAVKVGMKEYGLESLFEHYCYSRGGMRHSSYTCICGSGENSAVLHYGHAGAPNDRTIQNGDMCLFDMGGEYYSVASDITCSFPRNGKFTADQKAVYEAVLLSSRAVMGAMKPGDWWPDIDRLADRIHLEELAHMGILSGSVDAMVQAHLGAVFMPHGLGHFLGIDVHDVGGYPEGVERIDEPGLRSLRTARHLQPGMVLTVEPGIYFIDHLLDEALADPARASFLNREVLQRFRGFGGVRIEEDVVVIDSGIELLTCVPRTVEEIEACMAGCDKAFTPFSGPKHHHHHH
notes: Made in bacteria (pBAD/Thio-TOPO, without the N-terminal Thio) and purified on nickel; also called WT-PEPD; rhPEPD

Tests used:
[1] = target: ErbB2/delD2, human ErbB2 with deletion of ECD subdomain 2 (deletion of amino acids 196-320) (human) (UniProt P04626); experiment: ELISA; panel e; cell lysates; conditions: ligand
[2] = target: ErbB2/delD4, human ErbB2 with deletion of ECD subdomain 4 (deletion of amino acids 489-560) (human) (UniProt P04626); experiment: ELISA; panel e; cell lysates; conditions: ligand
[3] = target: T1, ErbB3/ECD-Fc, chimera of the ECD (Ser20-Thr643) of human ErbB3 and Fc (human, UniProt P21860 20-643); experiment: pull-down with protein G-sepharose, SDS-PAGE, silver stain
T1 construct: range 20-643; Bought from R&D Systems; also called human ErbB3/ECD-Fc; R&D Systems 348-RB-050; not shown: Fc (of human IgG1)
Description: (§1) Similar protein expression levels of ErbB2 and its mutants were detected in CHO-K1 cells transiently transfected with the plasmids (FIG. 1d). An equal amount of ErbB2 and its mutants, based on western blot quantification, were used in the same ELISA mentioned above. […] Thus, PEPD bound to D3, but D2 and D4, the latter in particular, may facilitate PEPD binding to ErbB2.
(§2) Immunoprecipitation. PEPD was incubated with ErbB2/ECD-Fc, ErbB3/ECD-Fc, ErbB4/ECD-Fc or Fc in binding buffer for 2 h at 37° C., followed by pull down with protein G-sepharose beads. […] For detection of direct and specific binding of PEPD or NRG-1 to ErbB2, ErbB3 or ErbB4, recombinant human PEPD or NRG-1 was incubated with recombinant human ErbB2/ECD-Fc, recombinant human ErbB3/ECD-Fc, recombinant human ErbB4/ECD-Fc or recombinant human Fc in 0.4 ml binding buffer. All solutions were incubated for 2 h at 37° C., followed by incubation with protein G-sepharose beads for 1 h at room temperature. […] In experiments using whole cell lysates, cells were lysed in M-PER buffer supplemented with a proteinase inhibitor mix (Roche Applied Science), and the lysates were incubated with a specific antibody overnight at 4° C., followed by pull down by protein G-agarose. […]

[4] = target: T2, ErbB4/ECD-Fc, chimera of the ECD (Gln26-Arg649) of human ErbB4 and the Fc (human, UniProt Q15303 26-649); experiment: as above
T2 construct: range 26-649; Bought from R&D Systems; also called human ErbB4/ECD-Fc; R&D Systems 1131-ER-050; not shown: Fc (of human IgG1)
T2 sequence (looked up): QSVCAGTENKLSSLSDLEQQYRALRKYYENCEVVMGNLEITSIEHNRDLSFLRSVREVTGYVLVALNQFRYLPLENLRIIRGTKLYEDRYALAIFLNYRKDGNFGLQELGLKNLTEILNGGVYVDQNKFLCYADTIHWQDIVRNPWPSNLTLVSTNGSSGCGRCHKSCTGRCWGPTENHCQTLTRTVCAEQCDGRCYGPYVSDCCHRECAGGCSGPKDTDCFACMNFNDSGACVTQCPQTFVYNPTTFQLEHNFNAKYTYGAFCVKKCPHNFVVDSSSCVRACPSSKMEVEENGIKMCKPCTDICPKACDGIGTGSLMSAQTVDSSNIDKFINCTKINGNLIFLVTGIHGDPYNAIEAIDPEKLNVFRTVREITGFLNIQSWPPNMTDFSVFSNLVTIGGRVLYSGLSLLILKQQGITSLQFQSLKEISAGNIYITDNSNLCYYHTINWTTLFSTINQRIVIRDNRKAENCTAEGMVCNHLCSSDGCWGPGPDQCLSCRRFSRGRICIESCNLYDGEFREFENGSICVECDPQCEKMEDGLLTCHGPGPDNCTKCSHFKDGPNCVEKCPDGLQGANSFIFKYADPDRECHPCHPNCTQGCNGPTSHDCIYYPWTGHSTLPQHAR
Description: as §1, §2

[5] = target: T3, ErbB2/delD4, human ErbB2 with deletion of ECD subdomain 4 (deletion of amino acids 489-560) (human, UniProt P04626 23-1255); experiment: ELISA, equal amounts of ErbB2 and mutants from lysates of transfected CHO-K1 cells
T3 construct: whole, on cells; Transiently expressed in CHO-K1 cells; also called pCMV6-XL5-ERBB2/delD4
Excerpt: as §1, with “Overexpression of human ErbB2 in CHO-K1 cells was readily achieved by gene transfection (FIG. 1b). […] Next, we removed the four ECD subdomains of human ErbB2 one at a time (FIG. 1d), using the ErbB2-expressing plasmid pCMV6-XL5-ERBB2 as a template. Similar” for “Similar”
(§3) ELISA-based measurement of PEPD and PEPD binding to ErbB2. To measure PEPD binding to human ErbB2 or its deletion mutants, ELISA plates were coated overnight at 4° C. with 100 μl/well of an ErbB2 antibody (binding to the cytoplasmic tail of ErbB2) at 10 μg/ml. After washing the wells three times with PBST, residual protein binding sites in the wells were blocked by incubation for 2 h at room temperature with 300 μl/well of 1% BSA in PBS. […] After three washes with PBST, 100 μl of a biotin-conjugated anti-His antibody (1:10,000 dilution; note that PEPD is His-tagged) was added to each well and incubated for 2 h at room temperature.

[6] = target: T4, ErbB2/delD2, human ErbB2 with deletion of ECD subdomain 2 (deletion of amino acids 196-320) (human, UniProt P04626 23-1255); experiment: as above
T4 construct: whole, on cells; Transiently expressed in CHO-K1 cells; also called pCMV6-XL5-ERBB2/delD2
Excerpt: as §1, with “Overexpression of human ErbB2 in CHO-K1 cells was readily achieved by gene transfection (FIG. 1b). […] Next, we removed the four ECD subdomains of human ErbB2 one at a time (FIG. 1d), using the ErbB2-expressing plasmid pCMV6-XL5-ERBB2 as a template. Similar” for “Similar”
as §3

[7] = target: T5, ErbB2 p95 fragment (minus ECD) (human, UniProt P04626 648-1255, limits assumed); experiment: co-immunoprecipitation with a PEPD antibody from lysates of APMA-treated CHO-K1/ErbB2 cells, western blot
T5 construct: domain: trans-membrane and intracellular regions (p95 fragment, minus ECD); Generated in CHO-K1/ErbB2 cells by 1 mM APMA for 0.25 h and tested in cell lysates; also called trans-membrane and intracellular regions of ErbB2
Description: FIG. 8. Data showing validation of a cell line used in the present disclosure, and lack of binding of PEPD to the transmembrane and intracellular regions of human ErbB2. (a) CHO-K1 cells were transiently transfected with an ErbB2-expressing plasmid (pCMV6-XL5-ERBB2) or the empty plasmid for 24 h. Human bladder cancer RT-4 cells and human breast cancer MCF-7 cells were untreated and were used as positive controls for ErbB1, ErbB3 and ErbB4. Cell lysates were analyzed by western blotting. GAPDH is a loading control. (b) CHO-K1 cells stably expressing ErbB2 (CHO-K1/ErbB2 cells) were treated with 1 mM APMA for 0.25 h. Cell lysates were then prepared and analyzed by western blotting (the first lane on the right). The same cell lysates were mixed with 1 μM PEPD, which were then incubated with a PEPD antibody or an isotype-matched IgG, pulled down with protein G-agarose, and analyzed by western blotting.
Immunoprecipitation. PEPD was incubated with ErbB2/ECD-Fc, ErbB3/ECD-Fc, ErbB4/ECD-Fc or Fc in binding buffer for 2 h at 37° C., followed by pull down with protein G-sepharose beads. The immunoprecipitates were washed with IP washing buffer and analyzed by western blotting. […] The immunoprecipitates were washed with IP washing buffer and analyzed by western blotting.

[8] = target: T6, Human ErbB2, wild type, full length (human, UniProt P04626 23-1255); experiment: ELISA; ErbB2 captured from lysates of ErbB2-transfected CHO-K1 cells by an antibody to its cytoplasmic tail, His-tagged PEPD detected with anti-His
T6 construct: whole, on cells; Three sources: CHO-K1 cells transiently transfected with pCMV6-XL5-ERBB2, CHO-K1/ErbB2 cells expressing it stably, and BT-474 cells where it is endogenous; The ELISA and the immunoprecipitations used cell lysates; The other assays used living cells; also called WT-ErbB2; Her2
Excerpt: as §1, with “Overexpression of human ErbB2 in CHO-K1 cells was readily achieved by gene transfection (FIG. 1b). […] Next, we removed the four ECD subdomains of human ErbB2 one at a time (FIG. 1d), using the ErbB2-expressing plasmid pCMV6-XL5-ERBB2 as a template. Similar” for “Similar”
as §3

T1 sequence (P21860 20-643 limits assumed, change not shown): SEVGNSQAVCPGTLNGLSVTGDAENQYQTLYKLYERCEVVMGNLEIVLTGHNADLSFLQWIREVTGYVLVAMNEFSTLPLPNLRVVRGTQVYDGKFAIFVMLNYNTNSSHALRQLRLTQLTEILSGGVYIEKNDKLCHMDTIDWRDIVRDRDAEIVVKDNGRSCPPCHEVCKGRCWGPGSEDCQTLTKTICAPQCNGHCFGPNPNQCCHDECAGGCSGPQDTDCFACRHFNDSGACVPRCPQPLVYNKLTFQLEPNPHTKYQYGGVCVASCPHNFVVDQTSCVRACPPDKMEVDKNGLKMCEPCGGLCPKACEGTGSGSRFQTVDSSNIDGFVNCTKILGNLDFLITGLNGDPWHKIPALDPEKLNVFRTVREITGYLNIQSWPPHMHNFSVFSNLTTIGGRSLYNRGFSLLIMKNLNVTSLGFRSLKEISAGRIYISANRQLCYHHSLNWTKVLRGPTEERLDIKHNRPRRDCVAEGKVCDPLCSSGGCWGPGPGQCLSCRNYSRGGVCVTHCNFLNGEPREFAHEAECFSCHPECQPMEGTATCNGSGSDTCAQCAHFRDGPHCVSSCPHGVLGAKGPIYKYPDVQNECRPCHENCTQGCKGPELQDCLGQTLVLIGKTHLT

Molecule	Kd [1] [nM]	Kd [2] [nM]	binding result [3]	binding result [4]	fold reduction of binding affinity against wild-type ErbB2 [5] [fold]	fold reduction of binding affinity against wild-type ErbB2 [6] [fold]	binding result [7]	Kd [8] [nM]
Recombinant human PEPD (peptidase D, prolidase), wild type, 6×His tagged at the carboxy terminus (from UniProt P12955 1-493)	25.9	372	–	–	–	–	–	–
B1	–	–	no binding (tested: PEPD 1 µM with 0.04 µM ErbB3/ECD-Fc)	no binding (tested: PEPD 1 µM with 0.04 µM ErbB4/ECD-Fc)	51	3.5	no binding (tested: 1 µM PEPD)	7.3

Reference: US20240293518A1 (HEALTH RESEARCH, published 2024)
